Source: the supplement of paper PMC9112550, “Optimization of the antimicrobial peptide Bac7 by deep mutational scanning” (BMC Biology, 2022)

System: Escherichia coli TOP10
Experiment: shrunken log2 fold change of peptide-encoding DNA abundance (4.5 h post-induction vs induction); higher = less antimicrobial activity (less host growth inhibition)
Settings: time post-induction: 4.5 h; library: site-saturation at positions 5, 18, 19, 20
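Also: peptides expressed intracellularly from a pBAD plasmid library in pooled LB shake-flask culture, induced with 0.3% L-arabinose, DNA abundance read by NGS, three biological replicates, DESeq2 with apeglm shrinkage.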

Sequence	shrunken log2 fold change
RRIRWRPPRLPRPRPRPRTYPRP	-0.331
RRIRGRPPRLPRPRPRPFWNPRP	0.087
RRIRHRPPRLPRPRPRPTDSPRP	0.0894
RRIRPRPPRLPRPRPRPTQLPRP	0.166
RRIRVRPPRLPRPRPRPTIEPRP	0.061
RRIRRRPPRLPRPRPRPTFHPRP	0.0529
RRIRNRPPRLPRPRPRPGMCPRP	-0.0316
RRIRVRPPRLPRPRPRPCHIPRP	-0.312
RRIRKRPPRLPRPRPRPWDIPRP	-0.0322
RRIRDRPPRLPRPRPRPDVWPRP	0.511
RRIRSRPPRLPRPRPRPMELPRP	-0.187
RRIRGRPPRLPRPRPRPPQVPRP	0.791
RRIRFRPPRLPRPRPRPASYPRP	-0.218
RRIRKRPPRLPRPRPRPKAMPRP	-0.0457
RRIRQRPPRLPRPRPRPDPLPRP	0.00221
RRIRLRPPRLPRPRPRPLMYPRP	-0.327
RRIRQRPPRLPRPRPRPKWYPRP	-0.118
RRIRRRPPRLPRPRPRPDNKPRP	-0.233
RRIRQRPPRLPRPRPRPHDIPRP	0.0769
RRIRVRPPRLPRPRPRPHPLPRP	-0.435
RRIRQRPPRLPRPRPRPDREPRP	0.00931
RRIRKRPPRLPRPRPRPPGHPRP	0.377
RRIRTRPPRLPRPRPRPVICPRP	-0.157

Sequence	shrunken log2 fold change
RRIRFRPPRLPRPRPRPNSAPRP	-0.603
RRIRTRPPRLPRPRPRPWVHPRP	-0.0467
RRIRRRPPRLPRPRPRPEIMPRP	0.209
RRIRHRPPRLPRPRPRPVIRPRP	0.00766
RRIRTRPPRLPRPRPRPKDMPRP	-0.0311
RRIRDRPPRLPRPRPRPYAPPRP	-0.477
RRIRGRPPRLPRPRPRPHEHPRP	1.13
RRIRHRPPRLPRPRPRPCYTPRP	0.0618
RRIRLRPPRLPRPRPRPHQIPRP	-0.249
RRIRERPPRLPRPRPRPEFRPRP	-0.274
RRIRSRPPRLPRPRPRPISEPRP	-0.0465
RRIRGRPPRLPRPRPRPQNPPRP	0.0251
RRIRQRPPRLPRPRPRPVGAPRP	0.489
RRIRWRPPRLPRPRPRPNAPPRP	0.328
RRIRVRPPRLPRPRPRPIGQPRP	0.0922
RRIRKRPPRLPRPRPRPGVDPRP	0.824
RRIRARPPRLPRPRPRPPHLPRP	2.23
RRIRPRPPRLPRPRPRPSQDPRP	-0.334
RRIRPRPPRLPRPRPRPGSWPRP	0.941
RRIRTRPPRLPRPRPRPIKRPRP	-0.0164
RRIRMRPPRLPRPRPRPMHMPRP	0.0153
RRIRWRPPRLPRPRPRPDNIPRP	-0.12
RRIRNRPPRLPRPRPRPVQYPRP	-0.000777

Sequence	shrunken log2 fold change
RRIRLRPPRLPRPRPRPDCKPRP	0.0852
RRIRKRPPRLPRPRPRPETMPRP	0.0612
RRIRDRPPRLPRPRPRPITMPRP	0.111
RRIRARPPRLPRPRPRPWCHPRP	-0.0135
RRIRNRPPRLPRPRPRPADRPRP	-0.00994
RRIRSRPPRLPRPRPRPEVVPRP	0.471
RRIRLRPPRLPRPRPRPSACPRP	-0.484
RRIRMRPPRLPRPRPRPSQGPRP	0.179
RRIRERPPRLPRPRPRPGATPRP	0.148
RRIRKRPPRLPRPRPRPYNAPRP	-0.171
RRIRVRPPRLPRPRPRPIGKPRP	-0.129
RRIRERPPRLPRPRPRPVEYPRP	-0.0437
RRIRARPPRLPRPRPRPNEWPRP	0.0144
RRIRYRPPRLPRPRPRPEYGPRP	-0.249
RRIRHRPPRLPRPRPRPNKCPRP	-0.431
RRIRSRPPRLPRPRPRPVQCPRP	-0.102
RRIRGRPPRLPRPRPRPLIHPRP	0.324
RRIRNRPPRLPRPRPRPDVFPRP	-0.199
RRIRRRPPRLPRPRPRPPKVPRP	0.693
RRIRPRPPRLPRPRPRPYNMPRP	-1.44
RRIRQRPPRLPRPRPRPFCDPRP	-0.259
RRIRHRPPRLPRPRPRPTCPPRP	0.0464
RRIRDRPPRLPRPRPRPIANPRP	0.274

Sequence	shrunken log2 fold change
RRIRWRPPRLPRPRPRPIQNPRP	-0.394
RRIRSRPPRLPRPRPRPKCDPRP	0.00444
RRIRIRPPRLPRPRPRPFCEPRP	-0.23
RRIRQRPPRLPRPRPRPPVKPRP	0.0851
RRIRHRPPRLPRPRPRPLWSPRP	-0.31
RRIRNRPPRLPRPRPRPMGKPRP	-0.491
RRIRDRPPRLPRPRPRPCRHPRP	0.344
RRIRNRPPRLPRPRPRPQHQPRP	-0.135
RRIRRRPPRLPRPRPRPANPPRP	0.364
RRIRMRPPRLPRPRPRPRKQPRP	0.938
RRIRSRPPRLPRPRPRPKYSPRP	-0.253
RRIRNRPPRLPRPRPRPKGQPRP	0.0938
RRIRVRPPRLPRPRPRPERCPRP	0.187
RRIRVRPPRLPRPRPRPPLNPRP	-0.098
RRIRVRPPRLPRPRPRPRECPRP	0.175
RRIRMRPPRLPRPRPRPVFDPRP	0.184
RRIRFRPPRLPRPRPRPGTEPRP	0.0589
RRIRWRPPRLPRPRPRPCMWPRP	-0.0796
RRIRGRPPRLPRPRPRPGMHPRP	0.589
RRIRVRPPRLPRPRPRPKMEPRP	-0.0457
RRIRRRPPRLPRPRPRPHIEPRP	-0.00196
RRIRSRPPRLPRPRPRPVNSPRP	-0.365
